Measured values: publication PMC10397247
Read-outs that look alike come from different tables or passages of the source.

T1: P6-AA-12HAA-D
T1 chain: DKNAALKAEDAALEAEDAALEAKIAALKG

T2: P6-AA-12HAA-E
T2 chain: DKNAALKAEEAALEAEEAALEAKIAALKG

T3: P6-AA-12HAA-H
T3 chain: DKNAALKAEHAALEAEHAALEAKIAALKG

T4: P6-AA-12HAA-K
T4 chain: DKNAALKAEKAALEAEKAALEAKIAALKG

T5: P6-AA-12HAA-L
T5 chain: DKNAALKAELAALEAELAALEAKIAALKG

T6: P6-AA-12HAA-R
T6 chain: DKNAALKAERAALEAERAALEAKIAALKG

T7: P6-AA-12HAA-S
T7 chain: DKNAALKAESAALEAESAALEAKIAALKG

T8: P6-AA-12HAA-T
T8 chain: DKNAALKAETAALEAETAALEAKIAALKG

T9: P6-AA-12HAA-V
T9 chain: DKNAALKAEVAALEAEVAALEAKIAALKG

T10: P6-AA-12HAA-Y
T10 chain: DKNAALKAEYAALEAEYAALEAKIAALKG

T11: P6-AA-1HAA-N
T11 chain: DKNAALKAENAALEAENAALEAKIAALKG

T12: P6-AA-1HAA-D
T12 chain: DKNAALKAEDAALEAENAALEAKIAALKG

T13: P6-AA-1HAA-E
T13 chain: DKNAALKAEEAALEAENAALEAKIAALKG

T14: P6-AA-1HAA-H
T14 chain: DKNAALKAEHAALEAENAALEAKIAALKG

T15: P6-AA-1HAA-K
T15 chain: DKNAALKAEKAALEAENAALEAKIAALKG

T16: P6-AA-1HAA-L
T16 chain: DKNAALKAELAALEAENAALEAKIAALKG

T17: P6-AA-1HAA-R
T17 chain: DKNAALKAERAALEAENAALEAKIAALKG

T18: P6-AA-1HAA-S
T18 chain: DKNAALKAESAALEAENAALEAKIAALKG

T19: P6-AA-1HAA-T
T19 chain: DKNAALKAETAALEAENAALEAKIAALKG

T20: P6-AA-1HAA-V
T20 chain: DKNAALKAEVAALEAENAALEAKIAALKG

T21: P6-AA-1HAA-Y
T21 chain: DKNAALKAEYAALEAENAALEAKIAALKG

T22: P2-AA-12HAA-D
T22 chain: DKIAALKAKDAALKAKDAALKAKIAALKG

T23: P2-AA-12HAA-E
T23 chain: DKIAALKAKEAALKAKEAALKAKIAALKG

T24: P2-AA-12HAA-H
T24 chain: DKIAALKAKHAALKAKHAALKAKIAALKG

T25: P2-AA-12HAA-I
T25 chain: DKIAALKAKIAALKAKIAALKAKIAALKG

T26: P2-AA-12HAA-K
T26 chain: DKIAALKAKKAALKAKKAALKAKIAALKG

T27: P2-AA-12HAA-L
T27 chain: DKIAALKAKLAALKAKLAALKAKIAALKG

T28: P2-AA-12HAA-R
T28 chain: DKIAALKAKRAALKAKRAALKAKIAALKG

T29: P2-AA-12HAA-S
T29 chain: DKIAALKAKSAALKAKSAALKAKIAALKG

T30: P2-AA-12HAA-T
T30 chain: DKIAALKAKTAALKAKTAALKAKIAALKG

T31: P2-AA-12HAA-V
T31 chain: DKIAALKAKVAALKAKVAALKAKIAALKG

T32: P2-AA-12HAA-Y
T32 chain: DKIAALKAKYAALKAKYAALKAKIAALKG

T33: P2-AA
T33 chain: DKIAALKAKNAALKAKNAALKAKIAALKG


Legend:
Assay in all cases: two-hybrid library CCmax;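 note: natural log of median RNA to DNA barcode read ratio; higher means stronger binding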
[1] = molecular target: T1, P6-AA-12HAA-D; settings: mean of both orientations
[2] = molecular target: T2, P6-AA-12HAA-E; settings: mean of both orientations
[3] = molecular target: T3, P6-AA-12HAA-H; settings: mean of both orientations
[4] = molecular target: T4, P6-AA-12HAA-K; settings: mean of both orientations
[5] = molecular target: T5, P6-AA-12HAA-L; settings: mean of both orientations
[6] = molecular target: T6, P6-AA-12HAA-R; settings: mean of both orientations
[7] = molecular target: T7, P6-AA-12HAA-S
[8] = molecular target: T8, P6-AA-12HAA-T; settings: mean of both orientations
[9] = molecular target: T9, P6-AA-12HAA-V; settings: mean of both orientations
[10] = molecular target: T10, P6-AA-12HAA-Y; settings: mean of both orientations
[11] = molecular target: T11, P6-AA-1HAA-N; settings: mean of both orientations
[12] = molecular target: T12, P6-AA-1HAA-D; settings: mean of both orientations
[13] = molecular target: T13, P6-AA-1HAA-E; settings: mean of both orientations
[14] = molecular target: T14, P6-AA-1HAA-H
[15] = molecular target: T15, P6-AA-1HAA-K
[16] = molecular target: T16, P6-AA-1HAA-L; settings: mean of both orientations
[17] = molecular target: T17, P6-AA-1HAA-R; settings: mean of both orientations
[18] = molecular target: T18, P6-AA-1HAA-S; settings: mean of both orientations
[19] = molecular target: T19, P6-AA-1HAA-T; settings: mean of both orientations
[20] = molecular target: T20, P6-AA-1HAA-V
[21] = molecular target: T21, P6-AA-1HAA-Y
[22] = molecular target: T22, P2-AA-12HAA-D; settings: mean of both orientations
[23] = molecular target: T23, P2-AA-12HAA-E; settings: mean of both orientations
[24] = molecular target: T24, P2-AA-12HAA-H; settings: mean of both orientations
[25] = molecular target: T25, P2-AA-12HAA-I; settings: mean of both orientations
[26] = molecular target: T26, P2-AA-12HAA-K; settings: mean of both orientations
[27] = molecular target: T27, P2-AA-12HAA-L
[28] = molecular target: T28, P2-AA-12HAA-R; settings: mean of both orientations
[29] = molecular target: T29, P2-AA-12HAA-S; settings: mean of both orientations
[30] = molecular target: T30, P2-AA-12HAA-T; settings: mean of both orientations
[31] = molecular target: T31, P2-AA-12HAA-V; settings: mean of both orientations
[32] = molecular target: T32, P2-AA-12HAA-Y; settings: mean of both orientations
[33] = molecular target: T33, P2-AA; settings: mean of both orientations

Binder | interaction score [11] | interaction score [12] | interaction score [13] | interaction score ([14]; mean of both orientations) | interaction score ([15]; mean of both orientations) | interaction score [16] | interaction score [17] | interaction score [18] | interaction score [19] | interaction score ([20]; mean of both orientations) | interaction score ([21]; mean of both orientations) | further results
DENAALEAKHAALKAKHAALKAEIAALEG [P5-AA-12HAA-H] | 0.14 | – | – | – | – | – | – | – | – | – | – | interaction score [1]: -1.53; interaction score [2]: -1.49; interaction score [3]: -1.49; interaction score [4]: -1.6; interaction score [5]: 1.16; interaction score [6]: -1.68; interaction score [7]: -1.37; interaction score [8]: -0.831; interaction score [9]: 1.55; interaction score [10]: -0.856
DENAALEAKKAALKAKNAALKAEIAALEG [P5-AA-1HAA-K] | 1.41 | -0.814 | -0.501 | -0.889 | -0.653 | 1.84 | -1.3 | 0.0853 | 1.53 | 2.05 | 0.0221 | –
DENAALEAKVAALKAKNAALKAEIAALEG [P5-AA-1HAA-V] | 1.42 | 0.818 | 2.25 | 1.79 | 2.25 | 2.32 | 1.76 | 1.53 | 1.93 | 2.09 | 2.48 | –
DENAALEAKDAALKAKNAALKAEIAALEG [P5-AA-1HAA-D] | -1.12 | -1.42 | -1.72 | -0.764 | -1.15 | -0.571 | -1.35 | -1.34 | -1.02 | 0.68 | – | interaction score [21]: -0.724
DENAALEAKNAALKAKNAALKAEIAALEG [P5-AA-1HAA-N] | 2.27 | -0.622 | 0.442 | 1.2 | 0.958 | 1.05 | 0.871 | 1.15 | 1.25 | 1.86 | 1.5 | interaction score [1]: -1.55; interaction score [2]: -0.844; interaction score [3]: 0.901; interaction score [4]: -0.291; interaction score [5]: -0.372; interaction score [6]: -0.112; interaction score ([7]; mean of both orientations): -0.405; interaction score [8]: -0.0689; interaction score [9]: -0.62; interaction score [10]: 0.697
DENAALEAKAAALKAKNAALKAEIAALEG [P5-AA-1HAA-A] | 0.981 | -1.94 | -0.184 | -0.274 | -0.453 | 1.94 | -0.629 | -0.02 | 0.325 | – | 0.845 | interaction score [20]: 2.66
DENAALEAKHAALKAKNAALKAEIAALEG [P5-AA-1HAA-H] | 1.97 | -0.238 | -0.637 | -0.596 | -0.495 | 1.9 | -1.13 | 0.88 | 1.49 | 2.15 | 0.439 | –
DENAALEAKSAALKAKNAALKAEIAALEG [P5-AA-1HAA-S] | 0.913 | -1.74 | -0.781 | 0.0581 | – | 1.67 | -0.821 | -0.742 | 0.235 | 2.16 | 0.832 | interaction score [15]: -1.01
DEIAALEAEKAALEAEKAALEAEIAALEG [P1-AA-12HAA-K] | – | – | – | – | – | – | – | – | – | – | – | interaction score [22]: -0.759; interaction score [23]: -0.226; interaction score [24]: 0.974; interaction score [25]: 1.67; interaction score [26]: -1.33; interaction score [27]: 1.62; interaction score [28]: -0.283; interaction score [29]: -0.0454; interaction score [30]: 0.253; interaction score [31]: 1.38; interaction score [32]: 0.916; interaction score [33]: 1.75

The next lines start with results.

interaction score [11] | interaction score [12] | interaction score [13] | interaction score ([14]; mean of both orientations) | interaction score ([15]; mean of both orientations) | interaction score [16] | interaction score [17] | interaction score [18] | interaction score [19] | interaction score ([20]; mean of both orientations) | interaction score ([21]; mean of both orientations) | Binder | further results
0.702 | -0.594 | 0.317 | 1.47 | 0.498 | 1.91 | 0.322 | 0.78 | 0.456 | 2.01 | 1.19 | DENAALEAKTAALKAKNAALKAEIAALEG [P5-AA-1HAA-T] | –
1.66 | -0.436 | 1.45 | 1.55 | 1.78 | 2.49 | 1.43 | 1.85 | 2.08 | 2.31 | 1.93 | DENAALEAKLAALKAKNAALKAEIAALEG [P5-AA-1HAA-L] | –
-0.649 | -1.78 | -1.42 | -1.76 | -1.41 | 0.711 | -1.33 | -1.13 | -0.112 | 1.57 | -0.801 | DENAALEAKEAALKAKNAALKAEIAALEG [P5-AA-1HAA-E] | –
1.76 | -0.899 | -0.129 | -0.1 | 0.174 | 1.72 | -0.286 | 1.55 | 1.28 | 1.79 | 1.34 | DENAALEAKYAALKAKNAALKAEIAALEG [P5-AA-1HAA-Y] | –
1.85 | -0.756 | -0.332 | – | -0.713 | 2.18 | -1.22 | 0.434 | 1.54 | 2.18 | 0.0514 | DENAALEAKRAALKAKNAALKAEIAALEG [P5-AA-1HAA-R] | interaction score [14]: -0.333
